Reference: patent publication US6946255 (KO OKUMURA, dated 2005)

T1: monkey Fas ligand on activated rhesus monkey peripheral blood mononuclear cell surfaces (rhesus monkey, UniProt P63307 1-280)
T1 construct: whole, on cells; also called Fas ligand on monkey cell surfaces
T1 sequence (looked up): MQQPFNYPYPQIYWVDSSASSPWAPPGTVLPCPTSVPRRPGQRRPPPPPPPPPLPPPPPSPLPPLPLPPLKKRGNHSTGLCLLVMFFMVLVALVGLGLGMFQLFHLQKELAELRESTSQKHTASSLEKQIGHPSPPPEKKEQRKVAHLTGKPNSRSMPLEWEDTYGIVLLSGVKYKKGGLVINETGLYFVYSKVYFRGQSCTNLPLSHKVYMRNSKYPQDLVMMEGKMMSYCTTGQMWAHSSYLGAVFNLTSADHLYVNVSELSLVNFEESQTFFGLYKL

T2: 10-mer peptide consisting of residues 1 to 10 of SEQ ID NO: 31 (immobilized on the tip of a Pepset pin)
T2 construct: One of 44 overlapping 10-mer peptides of the extracellular domain of the Fas ligand
T2 peptide: LSHKVYMRNS

T3: 10-mer peptide consisting of residues 5 to 14 of SEQ ID NO: 31 (immobilized on the tip of a Pepset pin)
T3 construct: One of 44 overlapping 10-mer peptides of the extracellular domain of the Fas ligand
T3 peptide: VYMRNSKYPQ

T4: human Fas expressed on WR19L cells (human, UniProt P25445 26-335)
T4 sequence (looked up): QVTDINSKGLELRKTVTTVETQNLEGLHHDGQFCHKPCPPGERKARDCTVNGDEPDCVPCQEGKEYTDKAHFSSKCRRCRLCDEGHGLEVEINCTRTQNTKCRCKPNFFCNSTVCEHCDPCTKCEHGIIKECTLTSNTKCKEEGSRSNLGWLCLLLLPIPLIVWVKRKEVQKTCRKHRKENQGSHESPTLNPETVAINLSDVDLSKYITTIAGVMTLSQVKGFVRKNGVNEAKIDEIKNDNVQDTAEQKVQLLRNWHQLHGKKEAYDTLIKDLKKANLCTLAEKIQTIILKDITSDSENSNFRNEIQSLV

B1: monoclonal antibody NOK1 (produced by Hybridoma NOK1, FERM BP-5044) (antibody, V domains shown)
VH: VQLQESGPELVKPGASVKISCKASGYAFSSSWMNWVKQRPGKGLEWIGRIYPGDGDTNDNGKFKGKATLTADKSSSTAYMQLSSLTSEDSAVYFCARSYYYDGSPWFTYWGQGTTVTVSS
VL: DIQMTQSPSSLSASLGDRVTISCRASQDISNYLNWYQQKPDGTVKLLIYYTSRLHSGVPSRFSGSGSGTDYSLTISNLEPEDIATYFCQQYSEFPWTFGGGTKLEIKR
notes: Used as hybridoma culture supernatant, as antibody purified from ascites, biotin-labelled, or coupled to Sepharose beads; also called NOK1 antibody; biotinized monoclonal antibody NOK1
B2: monoclonal antibody NOK5 (produced by Hybridoma NOK5, FERM BP-5048) (antibody, V domains shown)
VH: VQLQESGAEPAKPGASVKMSCKASGYTFTTYWMHWVKQRPGQGLEWIGYINPSSGYTEYNQKFKDKATLTADKSSSTAYMQLISLTSEDSAVYYCARRGNYYYFDYWGQGTTVTVSS
VL: DVLMTQTPKFLPVSAGDRVTMTCKASQSVGNNVAWYQQKPGQSPKLLIYYTSNRYTGVPDRFTGSGSGTDFTFTISSVQVEDLAVYFCQQHYSSPYTFGSGTKLE
B3: monoclonal antibody NOK2 (produced by Hybridoma NOK2, FERM BP-5045) (antibody, V domains shown)
VH: VQLQQSGAELVRPGTSVKMSCKAAGYTFTNYWIGWVKQRPGHGLEWIGYLYPGGLYTNYNEKFKGKATLTADTSSSTAYMQLSSLTSEDSAIYYCARYRDYDYAMDYWGQGTTVTVSS
VL: DVLMTQTPLSLPVNIGDQASISCKSTKSLLNSDGFTYLGWCLQKPGQSPQLLIYLVSNRFSGVPDRFSGSGSGTDFTLKISRVEAEDLGVYYCFQSNYLPLTFGSGTKLEIKR
notes: also called NOK2 antibody
B4: monoclonal antibody NOK4 (produced by Hybridoma NOK4, FERM BP-5047) (antibody, V domains shown)
VH: VQLQESGPGLVKPSQSLSLTCSVTGYSITSGYYWNWIRQFPGNKLEWMGYISYDGSNNYNPSLKNRISITRDTSKNQFFLKLNSVTTEDTATYYCAVYYYDGSSFDYWGQGTTVTVSS
VL: DIVLTQSPASLAVSLRQRATISCRASEGVDSYGISFMHWYQQKPGQPPKLLIYRASYLKSGVPARFSGSGSRTDFTLTIDPVEADDAATYYCQQNNEDPWTFGGGTKLEIKR
B5: monoclonal antibody NOK3 (produced by Hybridoma NOK3, FERM BP-5046) (antibody, V domains shown)
VH: VKLQESGPELVKPGASVKISCKASGYAFSSSWMNWVKQRPGKGLEWIGRIYPVNGDTNYNGKFKGKATLTADKSSSTAYMQLSSLTSEDSAVYFCATDGYWYFDVWGQGTTVTVSS
VL: NIVMTQSPKSMSMSVGERVTLSCKASENVDIYVSWYQQKPEQSPKLLIYGTSNRYTGVPDRFTGSGSATDFTLTISNVQAEDLSDYYCVQSYSYPWTFGGGTKLEIKR
notes: also called NOK3 antibody
B6: soluble human Fas ligand molecule (ligand, UniProt P48023 130-281, looked up)
chain: QIGHPSPPPEKKELRKVAHLTGKSNSRSMPLEWEDTYGIVLLSGVKYKKGGLVINETGLYFVYSKVYFRGQSCNNLPLSHKVYMRNSKYPQDLVMMEGKMMSYCTTGQMWARSSYLGAVFNLTSADHLYVNVSELSLVNFEESQTFFGLYKL

Assays:
[1] = biological target: B6; experiment: cell-based or functional assay
[2] = biological target: T1, monkey Fas ligand on activated rhesus …; experiment: flow cytometry (FACScan) on activated rhesus monkey PBMC, 1 µg antibody, PE-anti-mouse Ig's
Experimental: Five milliliters of peripheral blood were collected from a rhesus monkey using a heparinized syringe. After the blood was diluted to ½ with PBS, its lymphocyte fraction was recovered by the specific gravity centrifugation using Separate L. These monkey peripheral blood mononuclear lymphocytes were cultured for 2 days in a 10% FCS•RPMI 1640 medium containing 10 μg/ml of Con A to activate them. Thereafter, the cells were recovered by centrifugation, and then cultured further for a week in a 10% FCS•RPMI 1640 medium containing 50 units/ml of human IL-2 (interleukin-2). After a week, PMA and ionomycin were added to give concentrations of 10 ng/ml and 500 ng/ml, respectively, to activate the cells further for 4 hours. At this time, BB94 (matrix protease inhibitor) was added in a proportion of 10 μM at the same time. The Fas ligand was expressed in a large amount on the lymphocytes by these activation processes. After 4 hours, the cell were collected to analyze them by flow cytometry. After collecting the cells, the number of cells was first counted to adjust the cells to 1 ×10^6 cells/ml with PBS. Thereafter, the cells were placed in portions of 1 ml into tubes (Farcon No-2008), and 100 μl of control PBS, 1 μg of NOK1 antibody (100 μl of one diluted to a concentration of 10 μg/ml with PBS), 1 μg of monoclonal antibody NOK2 (similarly, 100 μl at a concentration of 10 μg/ml) and 1 μg of monoclonal antibody NOK3 (similarly, 100 μl at a concentration of […]) were separately placed in the tubes, thereby conducting a reaction for 30 minutes on an ice bath.
After the respective cultures were centrifugally washed twice with PBS. 1 µl of PE-anti-mouse Ig's were placed in the tubes to conduct a reaction further for 30 minutes on the ice bath. After the cultures were washed with PBS and separately suspended in 200 µl of PBS, they were analyzed by FACScan.

[3] = biological target: T2, 10-mer peptide consisting of residues 1 …; experiment: Pepset pin ELISA, HRP-labeled anti-mouse IgG
Experimental: (§1) ⑨ After the pin of the Pepset was taken out of the well of the plate, 2N H_2SO_4 was added in an amount of 50 μl to each well to stop the reaction.

[4] = biological target: T3, 10-mer peptide consisting of residues 5 …; experiment: Pepset pin ELISA, HRP-labeled anti-mouse IgG
Experimental: as §1

[5] = biological target: T4, human Fas expressed on WR19L cells; experiment: cell-based or functional assay

Row | binding result [2] | binding result [3] | binding result [4] | Binder | Survival rate [1] [%] | Survival rate [5] [%]
1 | binds | – | – | B1 | 99.3 | –
2 | – | – | – | B2 | 98.2 | –
3 | binds | binds | binds | B3 | 105 | –
4 | – | – | – | B4 | 110 | –
5 | binds | – | – | B5 | 101 | –
6 | – | – | – | B6 | – | 3.5
